Measurements reported in patent publication US7460961B2, “N-TRADD active site and uses thereof” (Genetics Institute, LLC, priority 2000, dated 2008).

Target: T1, C-TRAF2 (residues 262 to 501 of human TRAF2) (Homo sapiens, UniProt Q12933)
T1 construct: C-TRAF2 (residues 262-501) was purified and coupled to a sensor chip CM5; initiator Met added before residue 262 (N); 6xHis (C); made in house; host or cells: baculovirus in 'Tini' cells (insect cells), vector pAcSG2
T1 sequence (Q12933 262-501): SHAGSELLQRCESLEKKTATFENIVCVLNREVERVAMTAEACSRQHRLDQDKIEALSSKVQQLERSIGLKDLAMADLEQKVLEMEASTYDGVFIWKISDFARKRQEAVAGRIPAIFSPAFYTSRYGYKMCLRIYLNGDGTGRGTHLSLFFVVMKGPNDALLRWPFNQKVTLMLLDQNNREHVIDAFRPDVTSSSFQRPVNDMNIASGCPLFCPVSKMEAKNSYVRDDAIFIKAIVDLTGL
Assay: BIAcore surface plasmon resonance binding to immobilised C-TRAF2
Conditions: C-TRAF2 coupled to CM5 chip, read-out: Kd of the interaction between N-TRADD and C-TRAF2
Experimental: C-TRAF2 and N-TRADD binding studies: The affinity of wild-type N-TRADD and C-TRAF2 was measured by surface plasma resonance using a BIAcore 2000 system (Pharmacia Biosensor AB). C-TRAF2 (residues 262-501) was purified and coupled to a sensor chip CM5 by amine coupling at pH=5.0 to get about 800, 1500 and 5500 response units on three different flow cells. A constant flow (20 μL/min) of purified N-TRADD protein in 10 mM Hepes, pH=7.4, 150 mM NaCl, 3.4 mM EDTA and 0.05% P20 surfactant at 8 different concentrations from 650 μM to 84 μM was applied over the protein coupled chip for 2 min to analyze the association. Binding constants were obtained from the BIAevaluation software.
The ^1H-^15N HSQC of N-TRADD was used as a tool to map the binding interface with C-TRAF2, since the chemical shifts of contact residues will be perturbed upon complex formation. […] The C-TRAF2 (residues 262-501) used in the instant HSQC titration experiment (at 120 μM) is also a trimer, as determined by size exclusion chromatography. […] N-TRADD Mutagenesis and interactions between C-TRAF2 and N-TRADD: In order to further characterize the amino acids in N-TRADD that are involved in C-TRAF2 recognition, site directed mutants of N-TRADD were prepared and evaluated for their ability to bind C-TRAF2. […]
The affinity of N-TRADD mutants to C-TRAF2 was measured by BIAcore. […]

B1: N-TRADD: N-terminal domain (amino acid residues 1-169, SEQ ID NO:1) of human TNFR-1 associated death domain protein (protein)
chain: MAAGQNGHEWVGSAYLFVESSLDKVVLSDAYAHPQQKVAVYRALQAALAESGGSPDVLQMLKIHRSDPQLIVQLRFCGRQPCGRFLRAYREGALRAALQRSLAAALAQHSVPLQLELRAGAERLDALLADEERCLSCILAQQPDRLRDEELAELEDALRNLKCGSGAR
**Q.** B1 was tested. Which Kd did it give?
**A.** The Kd was 6 µM.
